Columns and labels:
[1] = molecular target: chicken PHT1 (purified, wild type) (chicken); assay: thermal shift (nanoDSF); concentration-dependent thermal shift of PHT1 with dipeptides; KD fitted by a modified Hall's method
[2] = molecular target: chicken PHT1 (purified, wild type) (chicken); assay: thermal shift (nanoDSF); TASL peptide titration: PHT1 with eleven 2-fold peptide dilutions from 100 µM; gel filtration buffer with 5% DMSO; KD fitted by a modified Hall's method

Row | Kd [1] [µM] | Kd [2] [nM] | Substance
1 | 73 | – | Arginine-Phenylalanine dipeptide
2 | 63 | – | Lysine-Valine dipeptide
3 | – | 400 | TASL peptide with a length of 14 residues
4 | – | 360 | TASL_(1-13) peptide
